According to patent US20200385487A1 (PURDUE PHARMA L P, published 2020):

Key:
[1] = target: T1, recombinant soluble human tissue factor (hTF) (human, UniProt P13726 33-251); experiment: SPR (Biacore X), soluble hTF immobilized on CM5 chip, antibody injected; global fit Langmuir 1:1
T1 construct: also called soluble hTF
Description: Binding properties of anti-hTF MAbs were evaluated using a Biacore X (Biacore Inc., Uppsala, Sweden). Briefly, a CM5 Biacore biosensor chip was docked into the instrument and activated with 55 μL of 1:1 NHS/EDC reagent (Biacore Inc.) at room temperature. The recombinant soluble hTF and BSA (10 μg/mL in 0.05 M acetate buffer, pH 4.5) were immobilized on the activated chip in flow cells 1 and 2, respectively. Immobilization was carried out at a flow rate of 5 μL/min until a resonance response of 1000-2000 RU was achieved. The chip was then blocked by injection of 55 μL of ethanolamine-HCl, pH 8.5, followed by five washes with 50 mM NaOH, 1 M NaCl.
To measure the binding of anti-hTF MAbs to the soluble hTF immobilized to the chip, 30 μL of anti-hTF MAbs at varying concentrations in Biacore running buffer (HBS-EP, Biacore Inc.) were injected over the sensor surface at a flow rate of 5 μL/min. Following completion of the injection phase, dissociation was monitored in BIAcore running buffer at the same flow rate for 360 sec. The surface was regenerated between injections using 30 μL of 50 mM NaOH-1 M NaCl. Individual sensorgrams were analyzed using […] software. Results for the Biacore/SPR binding analyses are shown in FIGS. 11A and 11B and Table 7.

[2] = target: T2, Recombinant Human Coagulation Factor III (tissue factor), R&D Systems (human, UniProt P13726 33-251); experiment: ELISA: 100 ng/well Recombinant Human Coagulation Factor III coated on plate, antibody titrated 1000 to 0.97 ng/ml, goat anti-human Fc-HRP, TMB, OD at 450 nm
T2 construct: Bought reagent
Description: The binding of humanized variants of TF antibody B278, including B278-LC7HC4, LC7HC5, LC7HC6, LC8HC4, LC8HC5, and LC8HC6 variants, to recombinant human coagulation factor III (tissue factor) was assessed by ELISA analysis. The chimeric antibody B278-LC0HC0 was used as a control. In brief, 100 ng/well of Recombinant Human Coagulation Factor III (R&D Systems, UK) was immobilized onto 96 well Maxisorp plates in coating buffer (0.5 mM NaHCO₃ brought to pH 9.5 by the addition of 0.5 mM Na₂CO₃) overnight at 4° C. Coating buffer was removed and the plates were washed once in PBS Tween (PBS-T) (0.05% (v/v) Tween 20). 200 μl per well of 3.0% (w/v) semi skim milk in PBS was added and the plates were agitated for 2 hours at room temperature. Plates were washed three times with PBS-T.
Purified humanized variants of the TF antibody B278 (LC7HC4; LC7HC5; LC7HC6; LC8HC4; LC8HC5; LC8HC6) were serially diluted from 1,000 ng/ml to 0.97 ng/ml in incubation buffer (PBS, 1% (w/v) BSA), and 100 μl added per well.
Following agitation for two hours at room temperature, the plate was washed three times with PBS-T. 100 μl/well of goat anti-human HRP (Fc specific) (Sigma, UK) (1:60,000 PBS) was added and plates incubated for one hour with agitation at room temperature. The plates were washed three times with PBS-T and once in PBS. 100 μl/well of 3,3′,5,5′-Tetramethylbenzidine (TMB) substrate solution was added and incubated at 37° C. for 10 minutes. 50 μl of 1M HCl were added per well and the plates immediately read at 450 nm on a Tecan Sunrise plate reader.

B1: chimeric antibody B278-LC0HC0 (antibody, V domains shown)
VH: EVQLQQSGAELMKPGASVKISCKATGYTFSSYWIEWVKQRPGHGLEWIGEILPGSASTKYNEKFKGKATFTADTSSNTAYMQLSSLTSEDSAVYYCARDYYYGSSYGFAYWGQGTLVTVSS
VL: QAVVTQESALTTSPGETVTLTCRSSTGAVTTSNYANWVQEKPDHLFTGLIGGTNNRGPGVPARFSGSLIGDKAALTITGAQTEDEAVYFCALWYSNHWVFGGGTKLTVLG
notes: also called Ab LC0HC0 (chimeric B278); chimeric B278 control antibody
Kd [1]: 24.9 nM | koff [1]: 0.0011 s⁻¹ | kon [1]: 43000 M⁻¹ s⁻¹ | EC50 (read off the curve) [2]: ~0.04 µg/mL

B2: LC7HC5 (antibody, V domains shown)
VH: QVQLQESGAEVKKPGASVKVSCKASGYTFSSYWIEWVRQAPGQGLEWMGEILPGSASTKYNEKFKGRVTMTADTSTNTVYMELSSLRSEDTAVYYCARDYYYGSSYGFAYWGQGTLVTVSS
VL: QAVVTQEPSLTVSPGGTVTLTCRSSTGAVTTSNYANWVQQKPGQLPKGLISGTNNRGPWTTARFSGSILGDKAVLTLWGAHTEDEAVYYCALWYSNHWVFGGGTKLTVLG
notes: Humanized B278 variant, expressed transiently in CHO cells; also called B278-LC7HC5; B278-LC7HC5 variant
EC50 (read off the curve) [2]: ~0.05 µg/mL

B3: LC7HC4 (antibody, V domains shown)
VH: QVQLQESGAEVKKPGASVKVSCKASGYTFSSYWIEWVRQAPGQGLEWMGEILPGSASTKYNEKFKGRVTMTRDTSTSTVYMELSSLRSEDTAVYYCARDYYYGSSYGFAYWGQGTLVTVSS
VL: QAVVTQEPSLTVSPGGTVTLTCRSSTGAVTTSNYANWVQQKPGQLPKGLISGTNNRGPWTTARFSGSILGDKAVLTLWGAHTEDEAVYYCALWYSNHWVFGGGTKLTVLG
notes: Humanized B278 variant, expressed transiently in CHO cells; also called B278-LC7HC4; B278-LC7HC4 variant
EC50 (read off the curve) [2]: ~0.06 µg/mL

B4: LC8HC5 (antibody, V domains shown)
VH: QVQLQESGAEVKKPGASVKVSCKASGYTFSSYWIEWVRQAPGQGLEWMGEILPGSASTKYNEKFKGRVTMTADTSTNTVYMELSSLRSEDTAVYYCARDYYYGSSYGFAYWGQGTLVTVSS
VL: QSALIQPPSVSGSPGQSVTISCRSSTGAVTTSNYANWVQQHPGTVPKPMIYGTNNRGPGVPDRFSGSKSGNTASMTISGLQAEDEADYFCALWYSNHWVFGGGTKLTVLG
notes: Humanized B278 variant, expressed transiently in CHO cells; also called B278-LC8HC5; B278-LC8HC5 variant
binding result [2]: no binding (tested: 1000 ng/ml)

B5: LC8HC4 (antibody, V domains shown)
VH: QVQLQESGAEVKKPGASVKVSCKASGYTFSSYWIEWVRQAPGQGLEWMGEILPGSASTKYNEKFKGRVTMTRDTSTSTVYMELSSLRSEDTAVYYCARDYYYGSSYGFAYWGQGTLVTVSS
VL: QSALIQPPSVSGSPGQSVTISCRSSTGAVTTSNYANWVQQHPGTVPKPMIYGTNNRGPGVPDRFSGSKSGNTASMTISGLQAEDEADYFCALWYSNHWVFGGGTKLTVLG
notes: Humanized B278 variant, expressed transiently in CHO cells; also called B278-LC8HC4; B278-LC8HC4 variant
binding result [2]: no binding (tested: 1000 ng/ml)

B6: LC8HC6 (antibody, V domains shown)
VH: EVQLQQSGAEVMKPGASVKISCKASGYTFSSYWIEWVKQAPGQGLEWIGEILPGSASTKYNEKFKGRVTFTADTSTNTAYMELSSLRSEDTAVYYCARDYYYGSSYGFAYWGQGTLVTVSS
VL: QSALIQPPSVSGSPGQSVTISCRSSTGAVTTSNYANWVQQHPGTVPKPMIYGTNNRGPGVPDRFSGSKSGNTASMTISGLQAEDEADYFCALWYSNHWVFGGGTKLTVLG
notes: Humanized B278 variant, expressed transiently in CHO cells; also called B278-LC8HC6; B278-LC8HC6 variant
binding result [2]: no binding (tested: 1000 ng/ml)

B7: humanized tissue factor antibody B278-LC7HC6 variant (antibody, human IgG1, lambda, V domains shown)
VH: EVQLQQSGAEVMKPGASVKISCKASGYTFSSYWIEWVKQAPGQGLEWIGEILPGSASTKYNEKFKGRVTFTADTSTNTAYMELSSLRSEDTAVYYCARDYYYGSSYGFAYWGQGTLVTVSS
VL: QAVVTQEPSLTVSPGGTVTLTCRSSTGAVTTSNYANWVQQKPGQLPKGLISGTNNRGPWTTARFSGSILGDKAVLTLWGAHTEDEAVYYCALWYSNHWVFGGGTKLTVLG
notes: Full-length humanized antibody; Expressed transiently in CHO cells; also called Ab LC7HC6; PS-F09-2016-012
Kd [1]: 25.3 nM | koff [1]: 0.0007 s⁻¹ | kon [1]: 28000 M⁻¹ s⁻¹
